# According to patent US20230120018A1, “PREDICTION OF PEPTIDE CLEAVAGE IN POLYPEPTIDES THROUGH PHYSICS-BASED SIMULATIONS” (Genentech, Inc., priority 2020, published 2023):
# B1: otlertuzumab (antibody, chains of the INN, looked up, V domains shown)
# VH: EVQLVQSGAEVKKPGESLKISCKGSGYSFTGYNMNWVRQMPGKGLEWMGNIDPYYGGTTYNRKFKGQVTISADKSISTAYLQWSSLKASDTAMYYCARSVGPFDSWGQGTLVTVSS
# VL: EIVLTQSPATLSLSPGERATLSCRASENVYSYLAWYQQKPGQAPRLLIYFAKTLAEGIPARFSGSGSGTDFTLTISSLEPEDFAVYYCQHHSDNPWTFGQGTKVEIK
# Assay: Neutral pH 37 C stability of commercial antibodies, fragmentation by mass spectroscopy and CE-SDS
# Assay type: physicochemical
# Conditions: PBS pH 7.4, up to 4 weeks at 37° C.
# Protocol: In addition to the data shown for Mab5 in Table 1 and FIG. 9, neutral pH, 37 C stability data was generated for all except muromonab, teplizumab, tovetumab, and visilizumab. Antibodies formulated in PBS, pH 7.4, were incubated for up to 4 weeks at 37° C. and evidence for fragmentation was obtained by mass spectroscopy and capillary electrophoresis sodium dodecyl sulfate (CE-SDS) for both intact and reduced samples.
row,Molecule,Light chain fragment observed? (hydrolysis at Asn-Pro in CDR-L3)
1,veltuzumab [reference compound],detected and Yes
2,B1,not and No

# Assay: Asn-Pro hydrolysis in unstructured linear peptide mimics of CDR-L3 at accelerated temperature
# Assay type: physicochemical
# Conditions: pH 7.4, 90° C.
# Protocol: To examine the effect of antibody structure on the rate of Asn-Pro hydrolysis, thermal stress was performed on unstructured, linear peptides representing the CDR-L3 sequence of Fab1 and Mab3. Since it had been previously shown that the rate of hydrolysis in unstructured peptides incubated at 37° C. was slow, accelerated temperature conditions (90 and 70° C.) were performed and the temperature dependence extrapolated to calculate the rate at 37° C. Very slow rates of peptide hydrolysis (Table 2), with half-lives calculated for 37° C. of greater than 2000 days, were observed. As expected, the rate of hydrolysis was slower, by about 3-fold, for incubations performed in pH 5 buffer.
row,Molecule,% Pro peak formation/day at 90° C.
1,"Fab1: peptide mimic of Fab1 CDR-L3 segment, QQWSSNPWTFGQ",1.0 % Pro peak formation/day
2,"Fab2: peptide mimic of Fab2 CDR-L3 segment, QQGYGNPFTFGQ",2.9 % Pro peak formation/day
3,"Mab3: peptide mimic of Mab3 CDR-L3 segment, QQWSSNPYTFGQ",2.9 % Pro peak formation/day
4,"Mab4: peptide mimic of Mab4 CDR-L3 segment, QQGINNPLTFGQ",1.9 % Pro peak formation/day
